Experiment [1] has as its target HLA-G1 isoform expressed on Expi293F cells (human) (UniProt P17693). Kind of experiment: flow cytometry on Expi293F cells transfected with HLA-G1, negative control staining.
The target in experiment [2] is HLA-G2 isoform expressed on Expi293F cells (human) (UniProt P17693). In words: flow cytometry on Expi293F cells transfected with HLA-G2, negative control staining; same profile as the HLA-G2 row of FIG. 5A, drawn larger.
Experiment [3] has as its target HLA-G4 isoform expressed on Expi293F cells (human) (UniProt P17693). In words: flow cytometry on Expi293F cells transfected with HLA-G4, negative control staining. (A flow cytometer gives signals particle by particle.)
Experiment [4] deals with HLA-G2 isoform expressed on Expi293F cells (human) (UniProt P17693). Kind of experiment: flow cytometry on Expi293F cells transfected with HLA-G2, negative control staining.
Experiment [5] concerns the target HLA-G3 isoform expressed on Expi293F cells (human) (UniProt P17693). In words: flow cytometry on Expi293F cells transfected with HLA-G3, antibody 10 µg/ml.
For experiment [6], the target named is HLA-G2 isoform expressed on Expi293F cells (human) (UniProt P17693). Kind of experiment: flow cytometry on Expi293F cells transfected with HLA-G2, antibody 10 µg/ml.
Experiment [7] has as its target HLA-G1 isoform expressed on Expi293F cells (human) (UniProt P17693). Kind of experiment: flow cytometry on Expi293F cells transfected with HLA-G1, antibody 10 µg/ml.
In experiment [8] the target is HLA-G4 isoform expressed on Expi293F cells (human) (UniProt P17693). In words: flow cytometry on Expi293F cells transfected with HLA-G4, antibody 10 µg/ml.

As to 2nd Ab (neg CTRL) (antibody), the % (positive cells) in experiment [1] was 1%; in experiment [2], 1%; in experiment [3], 2%; in experiment [4] it was 1%.
For the substance “commercial Mouse anti-HLA-G antibody 4H84 (Abcam, Mouse IgG1)”, the % of the cells stained in experiment [5] was determined as 67%; in experiment [6], 34%; in experiment [7], 81%; in experiment [8], 16%.

Values taken from patent US20250026836A1.
